Source: US20020001587A1

Target: human HER2 (ErbB2) (human) (UniProt P04626)
Assay: cell-based or functional assay

maximum inhibition of cell proliferation in SK-BR-3 cells: 66%
Substance: murine monoclonal antibody 4D5 (ATCC CRL 10463)
